# Measurements published in US20200199244A1 (published 2020).
# Where a chain is given by its changes, count along the chain named. In names and notes the source's numbering stands.
# B1: BMS3h-41-3 (other)
# VH: EVQLLEPGGGLVQPGGSLRLSCAASGFTFTEYEMIWVRKAPGKGMEWVSSISGNGANTYYADSVKGRFTISRDNSKNMLYLQMNSLRAEDTAVYYCAKEPLRFGYWGQGTLVTVSS
# B2: BMS3h-309 (other)
# VH: EVQLLESGGGLVQPGGSLRLSCAASGFTFSGHDMSWVRQAPGKGLEWVSAISPHGTHTYYADSVKGRFTISRDNSKNTLYLQMNSLRAEDTAVYYCAKGIRGWIGHDTQPFDYWGQGTLVTVSS
# B3: BMS3h-312 (other)
# VH: EVQLLESGGGLVQPGGSLRLSCAASGFTFDDEKMLWVRQAPGKGLEWVSSISVSGLHTYYADSVKGRFTISRDNSKNTLYLQMNSLRAEDTAVYYCAKEEAGSWSFDYWGQGTLVTVSS
# B4: DMS0677 DOM7h-11-90-TVA-BMS3h-56-258 (bispecific antibody)
# chain: DIQMTQSPSSLSASVGDRVTITCRASRPIGTMLSWYQQKPGKAPKLLILAFSRLQSGVPSRFSGSGSGTDFTLTISNLQPEDFATYYCAQAGTHPTTFGQGTKVEIKRTVAEVQLLESGGGLVQPGGSLRLSCAASGFTFRDYEMWWVRQAPGKGLERVSAINPQGTRTYYADSVKGRFTISRDNSKNTLYLQMNSLRAEDTAVYYCAKLPFYFHEWGQGTLVTVSS
# B5: DMS0679 DOM7h-11-90-G4S-BMS3h-56-258 (bispecific antibody)
# chain: DIQMTQSPSSLSASVGDRVTITCRASRPIGTMLSWYQQKPGKAPKLLILAFSRLQSGVPSRFSGSGSGTDFTLTISNLQPEDFATYYCAQAGTHPTTFGQGTKVEIKRGGGGSEVQLLESGGGLVQPGGSLRLSCAASGFTFRDYEMWWVRQAPGKGLERVSAINPQGTRTYYADSVKGRFTISRDNSKNTLYLQMNSLRAEDTAVYYCAKLPFYFHEWGQGTLVTVSS
# B6: DMS0680 DOM7h-11-90-(G4S)3-BMS3h-56-258 (bispecific antibody)
# chain: DIQMTQSPSSLSASVGDRVTITCRASRPIGTMLSWYQQKPGKAPKLLILAFSRLQSGVPSRFSGSGSGTDFTLTISNLQPEDFATYYCAQAGTHPTTFGQGTKVEIKRGGGGSGGGGSGGGGSEVQLLESGGGLVQPGGSLRLSCAASGFTFRDYEMWWVRQAPGKGLERVSAINPQGTRTYYADSVKGRFTISRDNSKNTLYLQMNSLRAEDTAVYYCAKLPFYFHEWGQGTLVTVSS
# B7: DMS0681 DOM7h-11-90-(G4S)5-BMS3h-56-258 (bispecific antibody)
# chain: DIQMTQSPSSLSASVGDRVTITCRASRPIGTMLSWYQQKPGKAPKLLILAFSRLQSGVPSRFSGSGSGTDFTLTISNLQPEDFATYYCAQAGTHPTTFGQGTKVEIKRGGGGSGGGGSGGGGSGGGGSGGGGSEVQLLESGGGLVQPGGSLRLSCAASGFTFRDYEMWWVRQAPGKGLERVSAINPQGTRTYYADSVKGRFTISRDNSKNTLYLQMNSLRAEDTAVYYCAKLPFYFHEWGQGTLVTVSS
# B8: DMS0682 BMS3h-56-258-TVA-DOM7h-11-90 (bispecific antibody)
# chain: EVQLLESGGGLVQPGGSLRLSCAASGFTFRDYEMWWVRQAPGKGLERVSAINPQGTRTYYADSVKGRFTISRDNSKNTLYLQMNSLRAEDTAVYYCAKLPFYFHEWGQGTLVTVSSTVADIQMTQSPSSLSASVGDRVTITCRASRPIGTMLSWYQQKPGKAPKLLILAFSRLQSGVPSRFSGSGSGTDFTLTISNLQPEDFATYYCAQAGTHPTTFGQGTKVEIKR
# B9: DMS0683 BMS3h-56-258-ASTSGPS-DOM7h-11-90 (bispecific antibody)
# chain: EVQLLESGGGLVQPGGSLRLSCAASGFTFRDYEMWWVRQAPGKGLERVSAINPQGTRTYYADSVKGRFTISRDNSKNTLYLQMNSLRAEDTAVYYCAKLPFYFHEWGQGTLVTVSSASTSGPSDIQMTQSPSSLSASVGDRVTITCRASRPIGTMLSWYQQKPGKAPKLLILAFSRLQSGVPSRFSGSGSGTDFTLTISNLQPEDFATYYCAQAGTHPTTFGQGTKVEIKR
# B10: DMS0684 BMS3h-56-258-G4S-DOM7h-11-90 (bispecific antibody)
# chain: EVQLLESGGGLVQPGGSLRLSCAASGFTFRDYEMWWVRQAPGKGLERVSAINPQGTRTYYADSVKGRFTISRDNSKNTLYLQMNSLRAEDTAVYYCAKLPFYFHEWGQGTLVTVSSGGGGSDIQMTQSPSSLSASVGDRVTITCRASRPIGTMLSWYQQKPGKAPKLLILAFSRLQSGVPSRFSGSGSGTDFTLTISNLQPEDFATYYCAQAGTHPTTFGQGTKVEIKR
# B11: DMS0685 BMS3h-56-258-(G4S)3-DOM7h-11-90 (bispecific antibody)
# chain: EVQLLESGGGLVQPGGSLRLSCAASGFTFRDYEMWWVRQAPGKGLERVSAINPQGTRTYYADSVKGRFTISRDNSKNTLYLQMNSLRAEDTAVYYCAKLPFYFHEWGQGTLVTVSSGGGGSGGGGSGGGGSDIQMTQSPSSLSASVGDRVTITCRASRPIGTMLSWYQQKPGKAPKLLILAFSRLQSGVPSRFSGSGSGTDFTLTISNLQPEDFATYYCAQAGTHPTTFGQGTKVEIKR
# B12: DMS0686 BMS3h-56-258-(G4S)5-DOM7h-11-90 (bispecific antibody)
# chain: EVQLLESGGGLVQPGGSLRLSCAASGFTFRDYEMWWVRQAPGKGLERVSAINPQGTRTYYADSVKGRFTISRDNSKNTLYLQMNSLRAEDTAVYYCAKLPFYFHEWGQGTLVTVSSGGGGSGGGGSGGGGSGGGGSGGGGSDIQMTQSPSSLSASVGDRVTITCRASRPIGTMLSWYQQKPGKAPKLLILAFSRLQSGVPSRFSGSGSGTDFTLTISNLQPEDFATYYCAQAGTHPTTFGQGTKVEIKR
# B13: BMS3h-198-1 (other)
# VH: EVQLLESGGGLVQPGGSLRLSCAASGSTIAGYEMWWVRQAPGKGLERVSAISGSGGSTYYADSVKGRFTISRDDSKNTLYLQMNSLRAEDTAVYYCARDPYSFDYWGQGTLVTVSS
# notes: dAb, single VH
# B14: BMS3h-202-10 (other)
# VH: EVQLLESGGGLVQPGGSLRLSCAASGFTFPTAEMLWVRQAPGKGLEWVSSISASGGSTYYADSVKGRFTISRDNSKNTLYLQMNSLRAEDTAVYYCAKEPVYYVATFDYWGQGTLVTVSS
# notes: dAb, single VH
# B15: BMS3h-202-11 (other)
# VH: B14 VH with Q39K, T91A, Y102S
# notes: dAb, single VH
# B16: BMS3h-37-2 (other)
# VH: EVQLLESGGGLVQPGGSLRLSCAASGFTFEWYEMQWVRRAPGKGLEWVSAISGDGYRTYYADSVKGRFTISRDNSKNTLYLQMNSLRAEDTAVYYCAKELGYFDYWGRGTLVTVSS
# notes: dAb, single VH
# B17: BMS3h-37-4 (other)
# VH: B16 VH with R39K
# notes: dAb, single VH
# B18: BMS3h-37-11 (other)
# VH: B16 VH with R39K, W106R
# notes: dAb, single VH
# B19: BMS3h-38-5 (other)
# VH: EVQLLGSGGGLVQPGGSLRLSCAASGFTFEEEEMIWVRQAPGKGLEWVSAISGSGGSTYYADSVKGRFTISRDNSKNTLYLQMNSLRAEDTAVYYCGKEPFRFDYWGQGTLVTVSS
# notes: dAb, single VH
# B20: BMS3h-38-8 (other)
# VH: B19 VH with G6E, V48I, S71H, G97S, W106R, Q108L
# notes: dAb, single VH
# B21: BMS3h-41-3 (other)
# VH: B1 VH
# notes: dAb, single VH
# B22: BMS3h-41-10 (other)
# VH: B1 VH with P7S, G9V, M45L, M78T, G104D, Y105N
# notes: dAb, single VH
# B23: BMS3h-198-2 (other)
# VH: B13 VH with L4P, S27F, I29F, V48I
# notes: dAb, single VH
# B24: BMS3h-43-3 (other)
# VH: EVQLLESGGGLVQPGGSLRLSCTASGFTFNMYEMSWVRQAPGKGLEWVSGISRRGFTTYYADSVKGRFTISRDNFKNTLYLQMNSLRAEDTAVYYCAKEPITYDMRYARFDYGGQGTLVTVSS
# notes: dAb, single VH
# B25: BMS3h-43-5 (other)
# VH: B24 VH with M31T, S52G, F75S, M105L, G113S
# notes: dAb, single VH
# B26: BMS3h-193-15 (other)
# VL: DIQMTQSPSSLSASVGDRVTITCRASRTIERRLNWYQQKPGKAPKLLIYLASRLQSGVPSRFSGSGSGTDFTLTISSLQPEDFATYYCHPYESPPLTFGQGTKVEIKR
# notes: dAb, single VK
# B27: BMS3h-198-3 (other)
# VH: B13 VH with L11S, S25T, I29F, F103Y, T113S
# notes: dAb, single VH
# Biological target: human CD40 (human, UniProt P25942 21-277)
# Experiment: cell-based or functional assay
row,hIZCD40L-driven Human B Cell Proliferation EC50,Binder
1,12 nM,B1

# Biological target: T1, Macaca fascicularis CD40 (Macaca fascicularis (cynomolgus monkey), UniProt P25942 21-277 (human entry))
# T1 chain: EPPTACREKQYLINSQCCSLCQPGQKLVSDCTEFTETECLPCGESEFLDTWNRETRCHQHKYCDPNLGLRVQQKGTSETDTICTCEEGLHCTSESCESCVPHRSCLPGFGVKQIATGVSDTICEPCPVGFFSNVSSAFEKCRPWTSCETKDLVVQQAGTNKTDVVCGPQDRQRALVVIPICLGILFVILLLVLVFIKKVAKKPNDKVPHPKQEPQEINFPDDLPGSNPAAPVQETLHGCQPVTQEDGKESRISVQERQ
# Experiment: cell-based or functional assay
row,hIZCD40L-driven Cyno B Cell Proliferation EC50,Binder
1,> 7000 nM,B1

# Biological target: T2, human CD40 (human, UniProt P25942 21-277)
# Experiment: cell-based or functional assay
row,hIZCD40L-driven Human B Cell Proliferation EC50,Binder
1,648 nM,B2
2,1100 nM,B3

# Biological target: T3, Macaca fascicularis CD40 (Macaca fascicularis (cynomolgus monkey), UniProt P25942 21-277 (human entry))
# T3 chain: T1 chain
# Experiment: cell-based or functional assay
row,hIZCD40L-driven Cyno B Cell Proliferation EC50,Binder
1,838 nM,B2
2,> 7000 nM,B3

# Biological target: T2, human CD40
# Experiment: cell-based or functional assay
# Remark: another data set of the same source
"ICAM-1 Cell Assay EC50 (nM), 10% bovine serum","ICAM-1 Cell Assay EC50 (nM), 10% human serum",Binder
21.7 nM,20.4 nM,B4
21.7 nM,39.2 nM,B5
39.3 nM,74.2 nM,B6
43.6 nM,53.3 nM,B7
10.2 nM,94.8 nM,B8
32.4 nM,50.9 nM,B9
37.9 nM,74.3 nM,B10
31.9 nM,62.4 nM,B11
48.3 nM,66.6 nM,B12

# Biological target: T4, human CD40 (BMS, CY24FEB06-01) (human, UniProt P25942 21-193)
# T4 construct: Soluble reagent of the bead and ELISA RBA; It is detected with an anti-human IgG (Fc) mAb, so it may be a CD40-Ig fusion
# Experiment: ELISA RBA, competition with IZ-CD40L;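 also: Neutravidin-coated 384-well plate, dAb–human CD40 complex bound for 2 h at room temperature, absorbance read at 450 nm after HCl stop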
# Protocol: Clear walled High Bind, 384-well plates (Corning, UK) were coated with 25 μl of 1 μg/ml Neutravidin in 0.2 M carbonate-bicarbonate buffer, pH 9.4 overnight at 4° C. The following day, assay plates were washed with 0.1% (v/v) Tween PBS buffer, blocked with 1% (w/v) BSA in PBS for 1 hour at room temperature and washed again. […] Following washing of the assay plate, the dAb:human CD40 complex was incubated in the assay plate at room temperature for 2 hours with gentle agitation. […] Absorbance signal was measured using a SpectraMax® M5e plate reader (Molecular Devices) at 450 nm following neutralization with 1M HCl solution.
row,EC50,Binder
1,12 nM,B13

# Biological target: T5, human CD40 expressed on stably transfected CHO-DG44 cells (human, UniProt P25942 21-277)
# T5 construct: also called CHO-CD40
# Experiment: CHO-CD40 cell RBA, competition with IZ-CD40L
# Protocol: The mixture was incubated in the absence of light for 6 hours.
row,EC50,Binder
1,7200 nM,B14
2,8300 nM,B15
3,32 nM,B16
4,45 nM,B17
5,27 nM,B18
6,1000 nM,B19
7,2800 nM,B20
8,200 nM,B21
9,4300 nM,B22
10,70 nM,B13
11,115 nM,B23
12,320 nM,B24
13,90 nM,B25
14,300 nM,B26
15,330 nM,B27
